Laboratory results from patent US20240115611A1 (KITE PHARMA, published 2024).

T1: CD20 (human CD20) (human, UniProt P11836 1-297)
T1 construct: whole, on cells; The cell line for each value is named under assay
T1 sequence (looked up): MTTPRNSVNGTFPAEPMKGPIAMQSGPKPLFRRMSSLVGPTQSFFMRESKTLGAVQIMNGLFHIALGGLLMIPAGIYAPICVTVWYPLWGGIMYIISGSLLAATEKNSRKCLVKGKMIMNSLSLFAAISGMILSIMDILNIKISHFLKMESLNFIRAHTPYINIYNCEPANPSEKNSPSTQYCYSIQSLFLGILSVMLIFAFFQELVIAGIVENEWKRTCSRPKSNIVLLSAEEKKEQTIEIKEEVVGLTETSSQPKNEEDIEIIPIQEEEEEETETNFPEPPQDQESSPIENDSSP


Assays:
CD20 (human CD20) [1] = molecular target: T1, CD20 (human CD20); assay: flow cytometry, purified IgG at 10 nM on Raji cells (CD20+), FITC-LC detection, ratio over negative control
Protocol: (§1) To determine cell binding by exemplary heavy chain variable domains and light chain variable domains of the present disclosure, purified IgGs were characterized for cell binding at a concentration of 10 nM by flow cytometry. Antibodies were incubated with CHO-S cells overexpressing CD20, Raji, and Namalwa CD20+ cell lines; and with EoL-1 and CHO-S CD20-cell lines. FITC-LC was used to detect IgGs. The ratio of binding over negative controls was calculated for each antibody.

CD20 (human CD20) [2] = molecular target: T1, CD20 (human CD20); assay: flow cytometry, purified IgG at 10 nM on CHO-S cells overexpressing CD20, FITC-LC detection, ratio over negative control
Protocol: as §1

CD20 (human CD20) [3] = molecular target: T1, CD20 (human CD20); assay: flow cytometry, purified IgG at 10 nM on Namalwa cells (CD20+), FITC-LC detection, ratio over negative control
Protocol: as §1

Binder | Raji Cell Binding FON (Fold Over Negative) (CD20 (human CD20) [1]) [fold] | CHO-CD20 Cell Binding FOB (Fold Over Background) (CD20 (human CD20) [2]) [fold] | Namalwa Cell Binding FON (Fold Over Negative) (CD20 (human CD20) [3]) [fold]
Ab4 (Exemplary Antibody Sequences 4), anti-CD20 antibody (antibody, V domains shown) VH: QVQLVQSGAEVKKPGASVKVSCKASGYTFKEYGISWVRQAPGQGLEWMGWISAYSGHTYYAQKLQGRVTMTTDTSTSTAYMELRSLRSDDTAVYYCARGPHYDDWSGFIIWFDPWGQGTLVTVSS VL: not shown | 479 | 3620 | 19
Ab8 (Exemplary Antibody Sequences 8), anti-CD20 antibody (antibody, V domains shown) VH: QVQLQQWGAGLLKPSETLSLTCAVYGGSFSRYVWSWIRQPPGKGLEWIGEIDSSGKTNYNPSLKSRVTISVDTSKNQFSLKLSSVTAADTAVYYCARVRYDSSDSYYYSYDYGMDVWGQGTTVTVSS VL: not shown | 562 | 3830 | 10
Ab2 (Exemplary Antibody Sequences 2), anti-CD20 antibody (antibody, V domains shown) VH: QVQLQQWGAGLLKPSETLSLTCAVYGGSFSGIHWNWIRQPPGKGLEWIGDIDTSGSTNYNPSLKSRVTISVDTSKNQFSLKLSSVTAADTAVYYCARLGQESATYLGMDVWGQGTTVTVSS VL: not shown | 101 | 2790 | 3
Ab3 (Exemplary Antibody Sequences 3), anti-CD20 antibody (antibody, V domains shown) VH: QLQLQESGPGLVKPSETLSLTCTVSGGSISSSSYYWGWIRQPPGKGLEWIGSIYYSGSTYYNPSLKSRVTISVDTSKNQFSLKLSSVTAADTAVYYCARETDYSSGMGYGMDVWGQGTTVTVSS VL: DIQMTQSPSSLSASVGDRVTITCRASQSINSYLNWYQQKPGKAPKLLIYAASSLQSGVPSRFSGSGSGTDFTLTISSLQPEDFATYYCQQSLADPFTFGGGTKVEIK | 316 | 2000 | 16
Ab1 (Exemplary Antibody Sequences 1), anti-CD20 antibody (antibody, V domains shown) VH: QVQLQQWGAGLLKPSETLSLTCAVYGGSFSGYYWSWIRQPPGKGLEWIGEIDHSGSTNYNPSLKSRVTISVDTSKNQFSLKLSSVTAADTAVYYCARGGGSWYSNWFDPWGQGTMVTVSS VL: DIQMTQSPSTLSASVGDRVTITCRASQSISSWLAWYQQKPGKAPKLLIYDASSLESGVPSRFSGSGSGTEFTLTISSLQPDDFATYYCQQDRSLPPTFGGGTKVEIK | 266 | 813 | 12

Further lines, results first:

Raji Cell Binding FON (Fold Over Negative) (CD20 (human CD20) [1]) [fold] | CHO-CD20 Cell Binding FOB (Fold Over Background) (CD20 (human CD20) [2]) [fold] | Namalwa Cell Binding FON (Fold Over Negative) (CD20 (human CD20) [3]) [fold] | Binder
549 | 4080 | 11 | Ab7 (Exemplary Antibody Sequences 7), anti-CD20 antibody (antibody, V domains shown) VH: QVQLQQWGAGLLKPSETLSLTCAVYGGSFEKYYWSWIRQPPGKGLEWIGEIYHSGLTNYNPSLKSRVTISVDTSKNQFSLKLSSVTAADTAVYYCARVRYDSSDSYYYSYDYGMDVWGQGTTVTVSS VL: not shown
562 | 3620 | 11 | Ab9 (Exemplary Antibody Sequences 9), anti-CD20 antibody (antibody, V domains shown) VH: QVQLQQWGAGLLKPSETLSLTCAVYGGSFSGYAWSWIRQPPGKGLEWIGEIDHRGFTNYNPSLKSRVTISVDTSKNQFSLKLSSVTAADTAVYYCARVRYDSSDSYYYSYDYGMDVWGQGTTVTVSS VL: not shown
186 | 3160 | 4 | Ab10 (Exemplary Antibody Sequences 10), anti-CD20 antibody (antibody, V domains shown) VH: QVQLQQWGAGLLKPSETLSLTCAVYGGSFQKYYWSWIRQPPGKGLEWIGEIDTSGFTNYNPSLKSRVTISVDTSKNQFSLKLSSVTAADTAVYYCARVGRYSYGYYITAFDIWGQGTTVTVSS VL: not shown
13 | 2520 | 2 | Ab6 (Exemplary Antibody Sequences 6), anti-CD20 antibody (antibody, V domains shown) VH: QITLKESGPTLVKPTQTLTLTCTFSGFSLDTEGVGVGWIRQPPGKALEWLALIYFNDQKRYSPSLKSRLTITKDTSKNQVVLTMTNMDPVDTAVYYCARDTGYSRWYYGMDVWGQGTTVTVSS VL: DIQMTQSPSSVSASVGDRVTITCRASQGISSWLAWYQQKPGKAPKLLIYAASSLQSGVPSRFSGSGSGTDFTLTISSLQPEDFATYYCQQAYAYPITFGGGTKVEIK
185 | 2480 | 17 | Ab5 (Exemplary Antibody Sequences 5), anti-CD20 antibody (antibody, V domains shown) VH: QVQLQESGPGLVKPSETLSLTCTVSGGSISSPDHYWGWIRQPPGKGLEWIGSIYASGSTFYNPSLKSRVTISVDTSKNQFSLKLSSVTAADTAVYYCARETDYSSGMGYGMDVWGQGTTVTVSS VL: DIQMTQSPSSLSASVGDRVTITCRASQSINSYLNWYQQKPGKAPKLLIYAASSLQSGVPSRFSGSGSGTDFTLTISSLQPEDFATYYCQQSLADPFTFGGGTKVEIK
